{"source": "patent US20120107299", "tested_on": "GST protein [GST: P08515]", "sequence (P08515 whole entry)": "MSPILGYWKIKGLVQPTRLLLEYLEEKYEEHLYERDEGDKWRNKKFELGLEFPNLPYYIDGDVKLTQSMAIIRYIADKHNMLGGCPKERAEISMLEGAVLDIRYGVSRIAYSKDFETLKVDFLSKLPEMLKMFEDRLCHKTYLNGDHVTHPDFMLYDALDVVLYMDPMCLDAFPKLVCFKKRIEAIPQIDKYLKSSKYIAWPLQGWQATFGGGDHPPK"}
{"substance": "FLAG-PTEN", "values": [{"measurement": "in vitro dephosphorylation of PTEN, Western blot with anti-PTEN antibodies specific to each phosphorylation", "result": "dephosphorylation of PTEN was not recognized in the GST protein"}]}
